Measured values published in publication doi:10.1101/169961.

Molecular target: Chicken skeletal muscle actin (chicken) (UniProt P68139)
Test: TIRF microscopy

Work on “tropomyosin AlaSer-Cdc8, labeled (natural protein)” yielded a percent of Fim1 association with F-actin prevented by Cdc8 alone of 50%.
